{"source": "patent US20050283857A1", "about": "(UNIVERSITY OF GEORGIA RESEARCH FOUNDATION, published 2005)", "target": "Cry1Ab toxin (Bacillus thuringiensis)", "assay": "125I-Cry1Ab toxin binding saturation assay on S2 cells; dissociation constant (Kcom)"}
{"binder": "Cad7-12 truncated Bt-R1a cadherin expressed in S2 cells (receptor) GTLEQNFRVREMSAGGLVVGSVRADDIDGPLYNQVRYTIFPREDTDKDLIMIDFLTGQISVNTSGAIDADTPPRFHLYYTVVASDRCSTEDPADCPPDPTYWETEGNITIHITDTNNKVPQAETTKFDTVVYIYENATHLDEVVTLIASDLDRDEIYHTVSYVINYAVNPRLMNFFSVNRETGLVYVDYETQGSGEVLDRDGDEPTHRIFFNLIDNFMGEGEGNRNQNDTEVLVILLDVNDNAPELPPPSELSWTISENLKQGVRLEPHIFAPDRDEPDTDNSRVGYEILNLSTERDIEVPELFVMIQIANVTGELETAMDLKGYWGTYAIHIRAFDHGIPQMSMNETYELIIHPFNYYAPEFVFPTNDAVIRLARERAVINGVLATVNGEFLERISATDPDGLHAGVVTFQVVGDEESQRYFQVVNDGANLGSLRLLQAVPEEIREFRITIRATDQGTDPGPLSTDMTFRVVFVPTQGEPRFASSEHAVAFIEKSAGMEESHQLPLAQDIKNHLCEDDCHSIYYRIIDGNSEGHFGLDPVRNRLFLKKELIREQSASHTLQVAASNSPDGGIPLPASILTVTVTVREADPRPVFMRELYTAGISTADSIGRELLRLHATQSEGAAITYAIDYDTMVVDPSLEAVRQSAFVLNAQTGVLTLNIQPTATMHGLFKFEVTATDTAGAQDRTDVTVYVVSSQNRVYFVFVNTLQQVEDNRDFIADTFSAGFNMTCNIDQVVPANDPVTGVALEHSTQMRGHFIRDNVPVLADEIEQIRSDLVLLSSIQTTLAARSLVLQDLLTNSSPDSAPDSSLTVYVLASLSAVLGFMCLVLLLTFIIRTRALNRRLEALSMTKYGSLDSGLNRAGIAAPGTNKHTVEGSNPIFNEAIKTPDLDAISEGSNDSDLIGIEDLPHFGNVFMDPEVNEKANGYPEVANHNNNFAFNPTPFSPEFVNGQFRKI", "values": [{"measurement": "Kd", "value": 2.05, "unit": "nM"}]}
